{
  "source": "paper PMC10600506",
  "about": "“A potent and broad‐spectrum neutralizing nanobody for SARS‐CoV‐2 viruses, including all major Omicron strains” (MedComm, 2023)",
  "binders": {"B1": {"name": "Nb4 (VHH)", "VHH": "AVQLQASGGGFVQPGGSLRLSCAASGWAETFGHMGWFRQAPGKEREFVSAIDWWDTVHYYADSVKGRFTISRDNSKNTVYLQMNSLRAEDTATYYCAYWDMDYLQNSIPVDYWGQGTQVTVSS", "notes": "also called Nb4 monomer; monomeric Nb4"}},
  "molecular_target": "T1, SARS-CoV-2 Omicron BA.1 Spike receptor-binding domain (SARS-CoV-2 Omicron BA.1, strain, biotin on the Avi tag (for phage screening and BLI); not biotinylated for crystallisation)",
  "T1 construct": "Spike glycoprotein of SARS-CoV-2, Omicron BA.1, RBD1 (319-514) domain; also called RBD1; BA.1 RBD; not shown: Avi-tag, C-terminal, kept",
  "assay": "BLI; biotinylated monovalent, […]; 25°C; 20 mM HEPES pH 7.4, 150 mM NaCl, 10 mg/mL BSA",
  "settings": "both partners purified",
  "data": [
    {"binder": "B1", "values": [
      {"measurement": "Kd", "value": "~8", "unit": "nM"}
    ]}
  ]
}
